The values below come from patent publication US20120058906A1 (published 2012).

The target of assay [1] is T1, rHuman IGF-1 sR, CF (R&D Systems Cat#391-GR) (human, UniProt P08069 31-932).
T1 construct: Bought soluble receptor; also called insulin-like growth factor-1 soluble receptor; IGF-R1
Nature of the assay: ECL (MSD Multi-Spot) binding, antigen spotted on plate; Fab 5 nM.

Assay [2] has as its target T2, Recombinant Human DLL4 (R&D Systems Cat#1506-D4/CF) (human, UniProt Q9NR61 27-524).
T2 construct: Bought recombinant protein; also called delta-like protein 4
Described as above.

In assay [3] the target is T3, rHuman ErbB2/Fc Chimera, CF (R&D Systems Cat#1129-ER) (human, UniProt P04626 23-652).
T3 construct: Bought Fc chimera; also called human epidermal growth factor 2 receptor; HER2/neu; Fc part of the bought chimera not given
The description is as above.

Assay [4] addresses T4, rHuman EGF R/Fc Chimera, CF (R&D Systems Cat#344-ER) (human, UniProt P00533 25-645).
T4 construct: Bought Fc chimera; also called epidermal growth factor receptor; Fc part of the bought chimera not given
The assay is described as above.

The target of assay [5] is T5, rHuman HGF R/c-MET/Fc Chimera, CF (R&D Systems Cat#358-MT/CF) (human, UniProt P08581 25-932).
T5 construct: Bought Fc chimera; also called HGF R/Fc; hepatocyte growth factor receptor; Fc part of the bought chimera not given
Described as above.

Assay [6] deals with T1, rHuman IGF-1 sR, CF (R&D Systems …). Nature of the assay: ECL (MSD Multi-Spot) binding, antigen spotted on plate; Fab 50 nM.
The target of assay [7] is T2, Recombinant Human DLL4 (R&D Systems …). The assay is described as above.
For assay [8], the target named is T3, rHuman ErbB2/Fc Chimera, CF (R&D …). The description is as above.
The target in assay [9] is T4, rHuman EGF R/Fc Chimera, CF (R&D …). The description is as above.
Assay [10] deals with T5, rHuman HGF R/c-MET/Fc Chimera, CF (R&D …). The description is as above.
For assay [11], the target named is T1, rHuman IGF-1 sR, CF (R&D Systems …). The experiment in a line: ECL (MSD Multi-Spot) binding, antigen spotted on plate; Fab 500 nM.
Assay [12] concerns the target T2, Recombinant Human DLL4 (R&D Systems …). The assay is described as above.
Assay [13] addresses T3, rHuman ErbB2/Fc Chimera, CF (R&D …). Described as above.
Assay [14] has as its target T4, rHuman EGF R/Fc Chimera, CF (R&D …). The assay is described as above.
The target in assay [15] is T5, rHuman HGF R/c-MET/Fc Chimera, CF (R&D …). Described as above.
Assay [16] concerns the target T6, rHuman CD44/Fc Chimera, CF (R&D Systems Cat#3660-CD) (human, UniProt P16070 21-220).
T6 construct: Bought Fc chimera; Fc part of the bought chimera not given
The experiment in a line: ECL (MSD Multi-Spot) binding, antigen spotted on plate; Fab 25 nM.

The target of assay [17] is T1, rHuman IGF-1 sR, CF (R&D Systems …). The description is as above.
Assay [18] addresses T7, rHuman P-Cadherin/Fc Chimera, CF (R&D Systems Cat#861-PC) (human, UniProt P22223 108-654).
T7 construct: Bought Fc chimera; Fc part of the bought chimera not given
The assay is described as above.

The target in assay [19] is T8, rHuman Erythropoietin R/Fc Chimera, CF (R&D Systems Cat#963-ER) (human, UniProt P19235 25-250).
T8 construct: Bought Fc chimera; also called EPO R/Fc; erythropoietin receptor; Fc part of the bought chimera not given
T8 sequence: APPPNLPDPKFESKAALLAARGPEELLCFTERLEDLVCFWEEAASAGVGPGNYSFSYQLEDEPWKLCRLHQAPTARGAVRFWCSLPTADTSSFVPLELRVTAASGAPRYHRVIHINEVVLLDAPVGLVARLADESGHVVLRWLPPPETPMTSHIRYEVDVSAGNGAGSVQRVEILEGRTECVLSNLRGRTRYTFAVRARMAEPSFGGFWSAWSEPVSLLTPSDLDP
Described as above.

Assay [20] addresses T2, Recombinant Human DLL4 (R&D Systems …). The assay is described as above.
Assay [21] addresses T9, rHuman Notch-1/Fc Chimera, CF (R&D Systems Cat#3647-TK) (human, UniProt P46531 19-526).
T9 construct: Bought Fc chimera; Fc part of the bought chimera not given
The description is as above.

Assay [22] addresses T6, rHuman CD44/Fc Chimera, CF (R&D Systems …). Nature of the assay: ECL (MSD Multi-Spot) binding, antigen spotted on plate; Fab 500 nM.
Assay [23] has as its target T1, rHuman IGF-1 sR, CF (R&D Systems …). The assay is described as above. This is another data set of the same source.
For assay [24], the target named is T7, rHuman P-Cadherin/Fc Chimera, CF (R&D …). The assay is described as above.
In assay [25] the target is T8, rHuman Erythropoietin R/Fc Chimera, CF …. The assay is described as above.
Assay [26] concerns the target T2, Recombinant Human DLL4 (R&D Systems …). The description is as above. This is another data set of the same source.
The target in assay [27] is T9, rHuman Notch-1/Fc Chimera, CF (R&D …). The description is as above.
Assay [28] deals with T6, rHuman CD44/Fc Chimera, CF (R&D Systems …). The experiment in a line: ECL (MSD Multi-Spot) binding, antigen spotted on plate; Fab 1.25 nM.
Assay [29] has as its target T1, rHuman IGF-1 sR, CF (R&D Systems …). Described as above.
The target in assay [30] is T7, rHuman P-Cadherin/Fc Chimera, CF (R&D …). The assay is described as above.
Assay [31] has as its target T8, rHuman Erythropoietin R/Fc Chimera, CF …. The assay is described as above.
The target in assay [32] is T2, Recombinant Human DLL4 (R&D Systems …). The description is as above.
The target in assay [33] is T9, rHuman Notch-1/Fc Chimera, CF (R&D …). Described as above.
Assay [34] concerns the target T6, rHuman CD44/Fc Chimera, CF (R&D Systems …). Nature of the assay: ECL (MSD Multi-Spot) binding, antigen spotted on plate; Fab 0.0625 nM.
The target in assay [35] is T1, rHuman IGF-1 sR, CF (R&D Systems …). The description is as above.
Assay [36] has as its target T7, rHuman P-Cadherin/Fc Chimera, CF (R&D …). The assay is described as above.
The target of assay [37] is T8, rHuman Erythropoietin R/Fc Chimera, CF …. Described as above.
Assay [38] has as its target T2, Recombinant Human DLL4 (R&D Systems …). The description is as above.
Assay [39] has as its target T9, rHuman Notch-1/Fc Chimera, CF (R&D …). The assay is described as above.
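Also: blank spot per well as comparator with Hit at signal to blank ratio of 4 or more.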

B1: Fab VH1-46_IGHD6-6*01_IGHJ1*01_S102A_S103P_S104F_H111F & L6_IGKJ1*01 (Fab, V domains shown)
VH: QVQLVQSGAEVKKPGASVKVSCKASGYTFTSYYMHWVRQAPGQGLEWMGIINPSGGSTSYAQKFQGRVTMTRDTSTSTVYMELSSLRSEDTAVYYCAREEYAPFSAEYFQFWGQGTLVTVSS
VL: not shown
notes: Fab made in E. coli; The heavy chain also carries the CH1 with Flag and His tags of Plasmid A, and the light chain the kappa constant region of Plasmid C
On to B1, for which the ECL signal was 917 in assay [1]; 150000 in assay [2]; 1380 in assay [3]; 1160 in assay [4]; 1020 in assay [5]; 1230 in assay [6]. In addition, the ECL signal in [7] worked out at 94200; in assay [8] it was 2110; in [9] it was 2040; in assay [10], 1280; in [11], 1870; in [12] it was 29900. Also, the ECL signal is 2620 in assay [13], 2510 in assay [14] and 2040 in [15].

B2: Fab VH5-51_IGHD5-18*01>3_IGHJ4*01_G100K_G104T & V3-4_IGLJ1*01 (Fab, V domains shown)
VH: EVQLVQSGAEVKKPGESLKISCKGSGYSFTSYWIGWVRQMPGKGLEWMGIIYPGDSDTRYSPSFQGQVTISADKSISTAYLQWSSLKASDTAMYYCARRKYSYTYDYFDYWGQGTLVTVSS
VL: QTVVTQEPSFSVSPGGTVTLTCGLSSGSVSTSYYPSWYQQTPGQAPRTLIYSTNTRSSGVPDRFSGSILGNKAALTITGAQADDESDYYCVLYMGSGISYVFGTGTKVTVL
notes: Fab made in E. coli
For B2, the ECL signal is 570 in assay [16]; 780 in [17]; 269 in assay [18]; 597 in [19]; 77900 in assay [20]; 440 in assay [21]. Moreover, the ECL signal in [22] came out at 923; in assay [23], 1110; in [24], 815; in assay [25], 828; in assay [26], 25900; in assay [27] it was 703. Besides, the ECL signal in assay [28] turned out to be 444; in assay [29], 674; in [30], 374; in [31], 448; in assay [32] it was 38800; in [33], 312. For the same molecule, the ECL signal came to 394 in assay [34]; 537 in assay [35]; 331 in assay [36]; 332 in [37]; 1010 in [38]; 439 in assay [39].
